Laboratory results from paper PMC8506132, “Structural and Kinetic Insights Into the Molecular Basis of Salt Tolerance of the Short-Chain Glucose-6-Phosphate Dehydrogenase From Haloferax volcanii” (Frontiers in Microbiology, 2021).

Substrate: NC(=O)c1ccc[n+]([C@@H]2O[C@H](COP(=O)(O)OP(=O)(O)OC[C@H]3O[C@@H](n4cnc5c(N)ncnc54)[C@H](O)[C@@H]3O)[C@@H](O)[C@H]2O)c1
Test: purified protein
Type: biochemical, Haloferax volcanii
Conditions: 2.0 M KCl, G6P co-substrate, pH 7.5, 25 °C, varied: cofactor

B1: HvG6PDH (Haloferax volcanii DS2) (protein)
chain: MDQPVLLTGAGGRVGQAILGHIGDAYDWRLLDREPLSDEKIPDSVDSTEVYVADVTDETAVRNAMDGVHAVIHLAGDPRPEAPWDSVLRNNIDGTQQMFDAAVDVGVEKFAFASSNHAVGAYETTDRTPDMYRPHHEFRLDGTELPRPSNLYGVSKAAGETLGRYYHDHHDISVVNVRIGNLTQHHPPKEYERGQAMWLSYRDCGHLFECCIEADYDYEIVYGISDNDRKYYSIDRARAVLGYDPQDNSAEFTFEGEPLDEA
notes: modelled as dimer
Question: With B1 as the protein, how does the Km read?
Answer: Its Km is 280 ± 68 µM.

Question: What about the kcat of the same protein?
Answer: The kcat was 48.5 ± 4.3 s⁻¹.
